Legend:
[1] = biological target: FKBP fused to the N terminus of TRF2 ΔB (FKBP-TRF2 ΔB), Myc-tagged
[2] = biological target: TRF2 (endogenous in HeLa cells) (human (endogenous in HeLa)) (UniProt Q15554); assay: proximity ligation; Duolink in situ PLA in fixed HeLa cells with anti-TRF2 and anti-histone H3 antibodies; cells scored for 10 or more signals in nuclei
Chain of UniProt Q15554 (Q15554 whole entry): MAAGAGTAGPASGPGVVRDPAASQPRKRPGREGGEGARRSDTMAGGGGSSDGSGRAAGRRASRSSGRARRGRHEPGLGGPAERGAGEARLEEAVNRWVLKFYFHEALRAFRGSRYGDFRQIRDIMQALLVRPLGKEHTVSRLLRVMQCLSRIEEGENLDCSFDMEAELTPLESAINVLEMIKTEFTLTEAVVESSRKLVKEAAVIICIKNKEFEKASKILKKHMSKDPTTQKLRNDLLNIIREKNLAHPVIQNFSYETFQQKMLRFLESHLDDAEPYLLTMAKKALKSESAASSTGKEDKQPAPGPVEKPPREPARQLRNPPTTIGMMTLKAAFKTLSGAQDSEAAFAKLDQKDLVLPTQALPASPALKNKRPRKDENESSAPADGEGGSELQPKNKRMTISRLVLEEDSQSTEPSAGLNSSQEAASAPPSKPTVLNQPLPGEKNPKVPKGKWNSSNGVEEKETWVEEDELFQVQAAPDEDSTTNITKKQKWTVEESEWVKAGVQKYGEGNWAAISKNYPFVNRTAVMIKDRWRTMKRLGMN

Substance	generation of t-circles in FKBP-TRF2 ΔB-complemented MEFs expressing H2B-FRB, with A/C dimerizer for 48 h [1] [%]	percent of cells with more than 10 positive Duolink signals [2]
FRB fused to the C terminus of histone H2B (H2B-FRB), HA-tagged	50	
histone H3 (HeLa cells) (from UniProt P68431 1-136) (natural protein)		26 % of cells

— paper PMC5034068
